Common to all, as to experiment: SPR, mAb captured, C2 mutant analyte;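 also: Anti-C2 mAbs captured on goat anti-human IgG Biacore CM5 chips, alanine or serine C2 surface mutants flowed over at 37 °C, double-referenced sensorgrams fitted to a 1:1 binding model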
(SPR reads the build-up and loss of mass on a sensor chip optically.)

The target of one experiment is T1, human C2 F689A (human, UniProt P06681 21-752).
T1 sequence: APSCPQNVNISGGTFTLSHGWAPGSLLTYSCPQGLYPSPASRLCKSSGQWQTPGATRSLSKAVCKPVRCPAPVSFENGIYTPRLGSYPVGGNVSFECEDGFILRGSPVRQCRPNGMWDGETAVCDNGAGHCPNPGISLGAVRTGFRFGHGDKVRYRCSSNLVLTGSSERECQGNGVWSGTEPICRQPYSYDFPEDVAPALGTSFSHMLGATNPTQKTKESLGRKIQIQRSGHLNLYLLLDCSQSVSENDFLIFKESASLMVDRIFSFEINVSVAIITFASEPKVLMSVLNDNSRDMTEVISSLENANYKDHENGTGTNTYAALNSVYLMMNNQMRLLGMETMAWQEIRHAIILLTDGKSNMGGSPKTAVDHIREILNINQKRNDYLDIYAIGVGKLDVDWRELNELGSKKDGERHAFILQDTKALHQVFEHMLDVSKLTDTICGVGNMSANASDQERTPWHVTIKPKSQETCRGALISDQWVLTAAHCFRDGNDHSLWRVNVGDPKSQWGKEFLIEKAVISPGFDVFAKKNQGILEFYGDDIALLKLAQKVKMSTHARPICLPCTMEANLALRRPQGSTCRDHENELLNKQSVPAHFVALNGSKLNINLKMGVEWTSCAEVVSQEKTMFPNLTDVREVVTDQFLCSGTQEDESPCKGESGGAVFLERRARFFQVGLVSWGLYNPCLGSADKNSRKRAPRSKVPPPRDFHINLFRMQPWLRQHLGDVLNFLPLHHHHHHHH

Another experiment concerns the target T2, human C2 D431A (human, UniProt P06681 21-752).
T2 sequence: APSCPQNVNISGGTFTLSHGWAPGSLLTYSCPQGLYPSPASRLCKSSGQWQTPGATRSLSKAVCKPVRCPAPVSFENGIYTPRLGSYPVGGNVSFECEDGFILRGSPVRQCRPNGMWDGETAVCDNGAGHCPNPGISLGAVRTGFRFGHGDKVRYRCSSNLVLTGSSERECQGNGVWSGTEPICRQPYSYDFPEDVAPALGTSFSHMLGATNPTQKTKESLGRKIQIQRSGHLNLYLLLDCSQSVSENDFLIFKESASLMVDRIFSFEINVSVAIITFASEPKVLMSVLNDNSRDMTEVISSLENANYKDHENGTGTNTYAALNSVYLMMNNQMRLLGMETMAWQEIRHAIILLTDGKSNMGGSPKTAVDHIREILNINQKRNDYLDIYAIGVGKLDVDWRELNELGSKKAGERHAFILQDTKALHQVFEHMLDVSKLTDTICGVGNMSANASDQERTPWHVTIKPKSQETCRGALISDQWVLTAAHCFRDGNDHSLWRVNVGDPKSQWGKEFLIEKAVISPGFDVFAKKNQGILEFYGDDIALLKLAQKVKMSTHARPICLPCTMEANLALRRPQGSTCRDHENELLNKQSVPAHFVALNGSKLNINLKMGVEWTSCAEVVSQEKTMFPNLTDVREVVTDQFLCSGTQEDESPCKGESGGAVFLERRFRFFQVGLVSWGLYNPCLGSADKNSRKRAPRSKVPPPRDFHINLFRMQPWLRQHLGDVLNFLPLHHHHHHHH

A further experiment deals with T3, human C2 G427A (human, UniProt P06681 21-752).
T3 sequence: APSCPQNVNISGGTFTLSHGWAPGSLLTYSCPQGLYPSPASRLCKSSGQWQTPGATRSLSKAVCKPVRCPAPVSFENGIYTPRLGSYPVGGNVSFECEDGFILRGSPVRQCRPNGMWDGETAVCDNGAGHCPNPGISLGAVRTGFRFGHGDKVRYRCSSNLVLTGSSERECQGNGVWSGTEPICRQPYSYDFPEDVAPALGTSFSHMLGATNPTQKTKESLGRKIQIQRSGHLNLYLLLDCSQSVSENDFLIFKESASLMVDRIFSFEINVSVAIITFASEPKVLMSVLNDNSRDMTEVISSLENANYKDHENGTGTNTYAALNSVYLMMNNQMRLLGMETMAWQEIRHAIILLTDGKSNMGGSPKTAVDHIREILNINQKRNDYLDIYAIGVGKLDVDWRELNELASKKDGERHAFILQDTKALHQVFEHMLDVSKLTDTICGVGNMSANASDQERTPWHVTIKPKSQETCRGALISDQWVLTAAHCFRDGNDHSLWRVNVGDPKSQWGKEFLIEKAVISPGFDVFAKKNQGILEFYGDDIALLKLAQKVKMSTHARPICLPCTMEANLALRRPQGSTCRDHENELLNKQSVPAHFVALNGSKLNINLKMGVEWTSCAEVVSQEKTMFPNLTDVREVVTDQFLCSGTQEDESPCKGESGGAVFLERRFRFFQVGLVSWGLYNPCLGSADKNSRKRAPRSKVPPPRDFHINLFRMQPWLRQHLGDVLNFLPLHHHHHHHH

The next experiment concerns the target T4, human C2 V465A (human, UniProt P06681 21-752).
T4 sequence: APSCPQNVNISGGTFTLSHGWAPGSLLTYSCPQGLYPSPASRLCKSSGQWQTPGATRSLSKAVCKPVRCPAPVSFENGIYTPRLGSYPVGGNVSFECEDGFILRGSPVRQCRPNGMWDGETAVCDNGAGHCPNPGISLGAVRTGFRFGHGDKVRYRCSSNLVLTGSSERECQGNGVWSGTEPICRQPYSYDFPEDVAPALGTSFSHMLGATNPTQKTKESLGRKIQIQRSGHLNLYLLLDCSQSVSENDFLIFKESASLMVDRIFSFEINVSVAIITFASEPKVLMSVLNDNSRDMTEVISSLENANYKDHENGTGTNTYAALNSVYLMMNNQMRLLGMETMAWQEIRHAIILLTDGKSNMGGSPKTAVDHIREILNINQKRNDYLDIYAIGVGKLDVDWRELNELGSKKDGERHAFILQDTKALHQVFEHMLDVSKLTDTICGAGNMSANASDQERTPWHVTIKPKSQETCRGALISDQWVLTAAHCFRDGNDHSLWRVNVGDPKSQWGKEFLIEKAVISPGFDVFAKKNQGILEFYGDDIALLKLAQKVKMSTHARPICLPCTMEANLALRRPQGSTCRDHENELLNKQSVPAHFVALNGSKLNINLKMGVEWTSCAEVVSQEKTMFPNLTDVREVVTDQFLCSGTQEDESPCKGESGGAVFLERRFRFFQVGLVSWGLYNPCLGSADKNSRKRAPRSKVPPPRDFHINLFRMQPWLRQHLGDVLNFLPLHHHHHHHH

The record followed here is patent US20220332804A1 (CSL INNOVATION, published 2022).

In general, Kd refers to the constant that tells how readily two partners part at equilibrium. Read a low Kd as a tighter complex.

B1: RF16-214 (antibody, V domains shown)
VH: EVQLLESGGGLVQPGGSLRLSCAASGFTFSWYQMMWVRQAPGKGLEWVSRIYPSGGGTAYADSVKGRFTISRDNSKNTLYLQMNSLRAEDTAVYYCARDAGYGDNWGQGTLVTVSS
VL: QSALTQPPSVSVSPGQTASITCSGDKLGEKYASWYQQKAGQSPVMVIYQDRKRPSGIPERFSGSNSGNTATLTISGTQAMDEADYYCQAWDTRAVVFGGGTKLTVLG
Regarding B1, the Kd stood at 36.5 nM in the experiment with human C2 F689A, 71.8 nM with human C2 D431A, 8.8 nM in the experiment with human C2 G427A and 72.7 nM in the experiment with human C2 V465A.
